From PMC2743687 (Nature structural & molecular biology, 2009)

Target: full-length Brr2, purified, Protein A tag cleaved off (S. cerevisiae, UniProt P32639 1-2163)
Experiment: native gel or EMSA

full-length Brr2, purified, Protein A tag cleaved off, sequence (P32639 whole entry): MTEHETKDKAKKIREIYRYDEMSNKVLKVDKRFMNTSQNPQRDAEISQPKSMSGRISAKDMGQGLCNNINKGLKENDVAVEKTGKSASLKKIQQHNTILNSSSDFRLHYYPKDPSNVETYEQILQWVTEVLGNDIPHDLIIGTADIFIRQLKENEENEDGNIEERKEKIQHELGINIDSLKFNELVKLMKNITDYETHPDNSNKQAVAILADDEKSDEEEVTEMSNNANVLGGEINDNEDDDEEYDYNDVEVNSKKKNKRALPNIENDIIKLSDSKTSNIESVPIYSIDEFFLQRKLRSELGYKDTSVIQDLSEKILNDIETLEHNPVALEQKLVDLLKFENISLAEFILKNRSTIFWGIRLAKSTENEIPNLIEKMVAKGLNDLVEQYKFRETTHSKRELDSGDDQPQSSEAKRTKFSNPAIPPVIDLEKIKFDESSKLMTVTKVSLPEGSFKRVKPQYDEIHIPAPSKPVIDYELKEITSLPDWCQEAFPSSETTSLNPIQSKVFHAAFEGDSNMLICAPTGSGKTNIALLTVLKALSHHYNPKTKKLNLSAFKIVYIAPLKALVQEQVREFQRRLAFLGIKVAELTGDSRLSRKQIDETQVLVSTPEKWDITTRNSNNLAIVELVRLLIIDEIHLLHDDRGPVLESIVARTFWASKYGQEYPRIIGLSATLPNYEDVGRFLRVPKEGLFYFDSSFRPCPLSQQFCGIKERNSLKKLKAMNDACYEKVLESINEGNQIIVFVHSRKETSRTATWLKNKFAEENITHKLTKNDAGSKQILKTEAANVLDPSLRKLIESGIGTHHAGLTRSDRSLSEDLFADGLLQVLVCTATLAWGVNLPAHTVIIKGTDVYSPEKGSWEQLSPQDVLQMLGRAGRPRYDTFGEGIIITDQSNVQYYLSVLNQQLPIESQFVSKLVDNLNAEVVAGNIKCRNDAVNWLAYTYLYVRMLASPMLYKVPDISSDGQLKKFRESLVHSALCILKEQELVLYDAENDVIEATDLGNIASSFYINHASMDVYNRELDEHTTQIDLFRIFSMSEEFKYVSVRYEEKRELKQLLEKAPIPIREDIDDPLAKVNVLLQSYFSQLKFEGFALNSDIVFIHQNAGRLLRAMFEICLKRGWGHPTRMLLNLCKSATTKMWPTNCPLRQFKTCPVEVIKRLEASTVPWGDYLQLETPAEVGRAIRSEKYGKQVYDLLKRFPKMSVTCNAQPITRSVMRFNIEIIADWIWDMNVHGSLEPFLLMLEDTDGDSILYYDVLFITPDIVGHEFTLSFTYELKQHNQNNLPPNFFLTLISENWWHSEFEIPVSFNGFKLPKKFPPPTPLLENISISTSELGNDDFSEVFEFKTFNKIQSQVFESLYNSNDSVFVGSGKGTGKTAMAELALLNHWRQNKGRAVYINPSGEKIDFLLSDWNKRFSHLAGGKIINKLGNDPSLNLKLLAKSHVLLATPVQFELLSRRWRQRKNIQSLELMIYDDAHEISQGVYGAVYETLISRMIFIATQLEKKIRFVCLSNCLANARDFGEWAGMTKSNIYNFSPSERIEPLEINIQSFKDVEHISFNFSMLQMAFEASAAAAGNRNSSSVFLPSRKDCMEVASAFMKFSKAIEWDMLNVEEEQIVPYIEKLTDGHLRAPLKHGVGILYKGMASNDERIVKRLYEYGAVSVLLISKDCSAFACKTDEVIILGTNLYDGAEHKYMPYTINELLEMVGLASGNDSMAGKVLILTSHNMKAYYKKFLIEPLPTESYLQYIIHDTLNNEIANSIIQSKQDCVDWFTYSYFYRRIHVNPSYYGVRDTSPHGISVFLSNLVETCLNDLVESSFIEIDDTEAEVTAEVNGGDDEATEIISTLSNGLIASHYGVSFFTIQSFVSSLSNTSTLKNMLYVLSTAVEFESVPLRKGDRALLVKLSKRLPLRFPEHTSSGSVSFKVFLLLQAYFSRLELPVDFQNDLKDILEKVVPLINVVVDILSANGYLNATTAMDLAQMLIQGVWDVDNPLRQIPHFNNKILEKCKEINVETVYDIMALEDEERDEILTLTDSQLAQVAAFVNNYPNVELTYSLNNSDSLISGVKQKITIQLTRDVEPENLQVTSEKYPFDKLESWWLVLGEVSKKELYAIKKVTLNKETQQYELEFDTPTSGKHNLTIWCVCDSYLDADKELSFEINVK

binding result: binds
B1: C-terminal region of Prp8 (Prp8-CTR, residues 1822–2395) (domain or fragment)
chain: GLQIYQSSVQEPFLNSSNYAELFNNDIKLFVDDTNVYRVTVHKTFEGNVATKAINGCIFTLNPKTGHLFLKIIHTSVWAGQKRLSQLAKWKTAEEVSALVRSLPKEEQPKQIIVTRKAMLDPLEVHMLDFPNIAIRPTELRLPFSAAMSIDKLSDVVMKATEPQMVLFNIYDDWLDRISSYTAFSRLTLLLRALKTNEESAKMILLSDPTITIKSYHLWPSFTDEQWITIESQMRDLILTEYGRKYNVNISALTQTEIKDIILGQNIKAPSVKRQKMAELEAARSEKQNDEEAAGASTVMKTKTINAQGEEIVVVASADYESQTFSSKNEWRKSAIANTLLYLRLKNIYVSADDFVEEQNVYVLPKNLLKKFIEISDVKIQVAAFIYGMSAKDHPKVKEIKTVVLVPQLGHVGSVQISNIPDIGDLPDTEGLELLGWIHTQTEELKFMAASEVATHSKLFADKKRDCIDISIFSTPGSVSLSAYNLTDEGYQWGEENKDIMNVLSEGFEPTFSTHAQLLLSDRITGNFIIPSGNVWNYTFMGTAFNQEGDYNFKYGIPLEFYNEMHRPVHFLQF
